Reference: the supplement of paper PMC12667976

B1: library; numbered along this chain (parent)
chain: MATDAALRRLLRLHRTEIAVAVDSAFPLLHALADHDVVPEDKFQETLHLKEKEGCPQAFHALLSWLLTQDSTAILDFWRVLFKDYNLERYGRLQPILDSFPKDVDLSQPRKGRKPPAVPKALVPPPRLPTKRKASEEARAAAPAALTPRGTASPGSQLKAKPPKKPESSAEQQRLPLGNGIQTMSASVQRAVAMSSGDVPGARGAVEGILIQQVFESGGSKKCIQVGGEFYTPSKFEDSGSGKNKARSSSGPKPLVRAKGAQGAAPGGGEARLGQQGSVPAPLALPSDPQLHQKNEDECAVCRDGGELICCDGCPRAFHLACLSPPLREIPSGTWRCSSCLQATVQEVQPRAEEPRPQEPPVETPLPPGLRSAGEEVRGPPGEPLAGMDTTLVYKHLPAPPSAAPLPGLDSSALHPLLCVGPEGQQNLAPGARCGVCGDGTDVLRCTHCAAAFHWRCHFPAGTSRPGTGLRCRSCSGDVTPAPVEGVLAPSPARLAPGPAKDDTASHEPALHRDDLESLLSEHTFDGILQWAIQSMARPAAPFPS

Variants of: B1
Assay: AIRE transcriptional activation functional score (insulin promoter-GFP; nonsense median 0, synonymous median 1) (normalised score); higher = higher AIRE activity (more reporter activation)
Conditions: with insulin promoter-GFP reporter in HEK293
Experimental: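 Deep mutational scan of full-length human AIRE (codon-optimized cDNA, DT-POPCode NNN libraries over three regions) integrated at a Bxb1 landing pad in HEK293 cells carrying an insulin core promoter-GFP reporter at a Flp-In site. Cells were sorted for the top 10% GFP about 14 days after transfection. Variant frequency log-ratios (select vs non-select, TileSeq) were rescaled so that the nonsense median is 0 and the synonymous median is 1, then averaged over biological replicates.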

AIRE transcriptional activation functional score: each site, then its substitutions
F77: H 0.528 | M 0.136 | K 0.21 | D -0.0172 | N -0.429 | G -0.0629 | E 0.445 | C 0.198 | A 0.257 | L -0.0762 | I 0.0486
S64: N 0.278 | Y 0.513 | T 0.485 | E -0.72 | K -0.37 | G 0.447 | P 0.795 | H 0.583 | R -0.473 | M -0.0813 | F 0.0385 | V -0.0585 | D -0.252 | A -0.0317 | Q -0.939 | W 0.42 | I -0.0655 | L -0.114 | C -0.513
L63: E -1.39 | P 0.339 | N 0.0814 | M -0.458 | V 0.617 | D -0.402 | G 0.772 | K -0.721 | I 0.588 | S -0.272 | A 0.181 | R -0.0432 | T -0.37 | Y -0.421 | Q -0.326 | C -0.0612 | H -0.128 | W 0.381 | F 0.298
W65: S 0.269 | H 0.542 | E 0.0731 | I -0.311 | D -1.55 | G 0.22 | A -0.93 | Q -0.357 | K 0.535 | R -0.313 | T 1.03 | P -0.233 | M -0.0554 | F 0.122 | L 0.2 | N 0.316 | V -0.0047 | Y -0.365 | C 0.469
D70: I 0.395 | L -0.362 | G 0.895 | N 0.992 | H -0.0845 | P -0.549 | S 2.47 | R 0.35 | F -0.152 | E 0.94 | Y -0.642 | V -0.0452 | A -0.203 | M -0.516 | Q 0.436 | W -0.512 | C 0.296 | K 2.05 | T 0.428
A61: P -0.68 | I -0.471 | W 1.46 | L -0.166 | R 0.646 | G 0.214 | M 0.552 | T 0.573 | S 1.48 | D 0.176 | N 0.59 | H 1.26 | V 0.328 | Q 0.472 | C -0.153 | Y -0.0286 | E 0.619 | F 0.26
L67: P -0.378 | E -0.592 | R -0.769 | V 0.638 | F -0.0388 | T -0.29 | N 0.265 | D 0.698 | H 0.742 | I 0.391 | K 0.25 | S -0.0517 | Y 0.237 | C -0.405 | M 0.554 | Q -0.874 | G -0.0868 | A 0.0875 | W 0.0659
H60: F 1.06 | I 0.216 | N 0.179 | C -0.27 | T 0.117 | S -0.00297 | D -0.0281 | K -0.424 | Y 0.332 | V -0.0783 | G 0.0323 | L -0.135 | M 0.414 | E -0.56 | R 0.0862 | A -0.135 | W 0.431 | Q 0.338 | P -0.793
S71: L -0.359 | D 1.61 | P -0.532 | T 1.05 | Y 1.52 | H 1.32 | K 1.2 | W -0.0187 | V 0.229 | M 0.472 | A 1.08 | R 0.321 | N 0.235 | G 0.809 | Q 2.02 | C 0.858 | I 0.605 | F 0.353 | E 1.17
T68: E -2.1 | Y 0.495 | D -0.277 | V 0.624 | H 0.424 | F -0.0989 | Q -1.24 | C 0.77 | S 0.804 | A 0.312 | L 0.729 | N 0.581 | G 0.848 | W -0.374 | M 0.985 | I -0.358 | R 0.304 | P 0.108 | K 0.868
T72: V 1.28 | S 0.667 | R 0.0611 | K 1.59 | Y 0.224 | N 1.15 | I 0.104 | G 0.0759 | W 0.0941 | F 0.964 | P 0.606 | H 1.39 | A 1.01 | D 2.22 | C 0.562 | L 0.84
D76: N -0.077 | L 0.535 | F -0.202 | S 0.371 | W 0.516 | T 0.0165 | Y 0.302 | I 0.22 | M 2.3 | V 0.795 | A 0.43 | E 0.132 | C 0.409 | G -0.331 | R 0.463 | H 0.235
F59: S 0.2 | R -0.191 | Q -1.19 | W 0.208 | P 0.0711 | T 0.102 | N -0.0761 | V 0.903 | Y -0.0924
L75: I 1.13 | P -0.233 | N 1.01 | E -0.603 | T 1.46 | R 0.518 | D -0.0941 | M 0.71 | S 0.842 | G 0.82 | C 0.732 | A 0.288 | F 0.688 | V 1.31 | Q 0.0287 | Y 1.52 | W 2.01 | H 0.935 | K 0.732
L62: Y 0.0998 | T -0.152 | M 0.558 | P -0.295 | K -0.404 | D -0.0278 | C 0.584 | S 0.0796 | A -0.0777 | G -0.253 | E -0.679 | V 0.0204 | H -0.594 | Q 0.0502 | N 0.232 | I -0.601 | R -0.00966 | W 0.305 | F -0.766
A73: G -0.592 | W -0.767 | N -0.949 | I 1.33 | P 0.676 | L 0.61 | R 1.26 | Y 0.555 | Q -1.02 | C 0.629 | D -0.0868 | V 1.1 | E 0.775 | S 0.179 | T 1.01 | H 2.12 | F 0.15
Q69: R 1.15 | S -0.2 | C 0.105 | D 0.261 | N -0.248 | V -0.0416 | W -0.383 | M -0.732 | H -0.135 | G 0.383 | L -0.119 | I -0.279 | A 0.0258 | P 0.118 | F -0.0774 | T -0.236 | E 0.0374 | Y 0.498 | K 0.102
I74: A 0.186 | Q 0.136 | V 0.51 | D 0.058 | P 0.409 | C 0.295 | E -0.548 | S -0.0735 | M 0.0325 | R -0.00714 | L 0.0101 | T -0.246 | Y 0.19 | W 0.39 | K 0.384 | N -0.347 | G 0.496 | H 0.604 | F -0.0221
L66: I 0.885 | M 0.0543 | Y 0.687 | N -0.299 | A 0.62 | R -0.171 | S -0.186 | V 0.121 | K -0.126 | Q 0.233 | T -0.0651 | W 0.0325 | E -0.037 | C -0.733 | G -0.202 | P 0.349 | D -0.102 | H 0.316 | F -0.101
